Measurements taken from article PMC3320615, “β-Microseminoprotein Endows Post Coital Seminal Plasma with Potent Candidacidal Activity by a Calcium- and pH-Dependent Mechanism” (PLoS Pathogens, 2012).

Tests used:
[1] = tested on: Candida albicans ATCC 90028; test: CFU assay with C. albicans; format: cell-based; conditions: for Estimate (difference between means of log values): control - treatment, pH 4
Procedure, shortened: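 About 4×10^3–10^4 CFU of C. albicans (ATCC 90028 unless stated) exposed to test substance in 10 mM Tris, 5 mM glucose at pH 7.4 or pH 4 for 4 h at 37 °C. Survivors counted as colonies after 2 days at 30 °C; log counts compared with control.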

[2] = Liposome leakage (carboxyfluorescein release); format: biochemical; conditions: pH 6.0, % ± SD of leakage with Triton X-100, CF fluorescence 520 nm, 37°C, at least triplicate, DOPC/cholesterol liposomes
Protocol: Dry lipid films were prepared by dissolving dioleoylphosphatidylcholine (1,2-dioleoyl-sn-Glycero-3-phoshocholine, >99% purity, Avanti Polar Lipids, Alabaster, AL) (60 mol%) (DOPC) and either ergosterol or cholesterol (both >99% purity, Sigma) (40 mol%) in chlorofom, and then removing the solvent by evaporation under vacuum overnight. Subsequently, buffer (10 mM Tris, pH 7.4) was added together with 0.1 M carboxyfluorescein (CF) (Sigma, St Louis, MO). After hydration, the lipid mixture was subjected to eight freeze-thaw cycles consisting of freezing in liquid nitrogen and heating to 60°C. Unilamellar liposomes of about Ø140 nm were generated by multiple extrusions through polycarbonate filters (pore size 100 nm) mounted in a LipoFastminiextruder (Avestin, Ottawa, Canada) at 22°C. Untrapped CF was then removed by two gel filtrations (Sephadex G-50) at 22°C, with Tris buffer as eluent. CF release was determined by monitoring the emitted fluorescence at 520 nm from liposome dispersions (10 mM lipid in 10 mM Tris). An absolute leakage scale was obtained by disrupting the liposomes at the end of the experiment through addition of 0.8 mM Triton X100 (Sigma, St Louis, MO), causing 100% release and dequenching of CF. Although calcein is frequently used for pH-dependent leakage studies, the high charge of this dye has been noted to influence its leakage behavior in the presence of highly cationic peptides. Instead, therefore, CF was used as a leakage marker at both pH 6.0 and 7.4, avoiding pH-dependent fluorescence effects through neutralization prior to probing the limiting leakage in case of pH 6.0 leakage. Throughout, a SPEX-fluorolog 1650 0.22-m double spectrometer (SPEX Industries, Edison, NJ) was used for the liposome leakage assay. Measurements were performed in at least triplicate at 37°C.

B1: β-microseminoprotein (natural protein, human, UniProt P08118 21-114, looked up)
chain: SCYFIPNEGVPGDSTRKCMDLKGNKHPINSEWQTDNCETCTCYETEISCCTLVSTPVGYDKDNCQRIFKKEDCKYIVVEKKDPKKTCSVSEWII
notes: human β-microseminoprotein (MSP, PSP94), native protein purified from seminal plasma; also called MSP; PSP94
Estimate (difference between means of log values) ([1]; 25 µM MSP + 25 µM EDTA + 0.5 mM calcium, experiment 1): -0.9947
Estimate (difference between means of log values) ([1]; 25 µM MSP + 25 µM EDTA + 0.5 mM calcium, experiment 2): -0.9876
Estimate (difference between means of log values) ([1]; 25 µM MSP + 25 µM EDTA + 0.5 mM calcium, experiment 3): -1.0805
Estimate (difference between means of log values) ([1]; 25 µM MSP + 25 µM EDTA + 0.5 mM magnesium, experiment 1): 1.9399
Estimate (difference between means of log values) ([1]; 25 µM MSP + 25 µM EDTA + 0.5 mM magnesium, experiment 2): 2.1624
Estimate (difference between means of log values) ([1]; 25 µM MSP + 25 µM EDTA + 0.5 mM magnesium, experiment 3): 1.6349
Estimate (difference between means of log values) ([1]; 25 µM MSP + 25 µM EDTA, experiment 1): 4.1638
Estimate (difference between means of log values) ([1]; 25 µM MSP + 25 µM EDTA, experiment 2): 4.7089
Estimate (difference between means of log values) ([1]; 25 µM MSP + 25 µM EDTA, experiment 3): 4.1911
Estimate (difference between means of log values) ([1]; 25 µM, experiment 1): -0.06377
Estimate (difference between means of log values) ([1]; 25 µM, experiment 2): -0.4481
Estimate (difference between means of log values) ([1]; 25 µM, experiment 3): -0.4892
Fungicidal activity in CFU assay ([1]; native MSP 10 µM + 20 µM EDTA or recombinant dialyzed MSP 10 µM + 10 µM EDTA): prominent fungicidal activity
Candidacidal activity in CFU assay ([1]; neutral and acidic pH, without EDTA): no candidacidal activity
Liposome leakage ([2]; +EDTA): 4±2%
Liposome leakage ([2]; without EDTA): 0%
